Tested on: MS2 coat protein
Test: apparent KD of MS2 coat protein; higher = weaker reporter binding
Details: Eterna round: R107
Experimental: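 RNA-MaP round R107: designed RNA switches with theophylline, tryptophan, arginine or FMN aptamers are transcribed on-chip within common flanks. They are titrated with SNAP-549-labelled MS2 coat protein in RNA-MaP buffer (100 mM Tris pH 7.5, 80 mM KCl, 4 mM MgCl2), without ligand or with the indicated ligand. Median apparent KD per design.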

[1] = input ligand: theophylline 20 uM
[2] = input ligand: theophylline 2 mM
[3] = input ligand: tryptophan 2.4 mM

| Sequence | apparent KD of MS2 coat protein (input ligand: arginine 13.2 mM) | apparent KD of MS2 coat protein (input ligand: none) | apparent KD of MS2 coat protein [1] | apparent KD of MS2 coat protein [2] | apparent KD of MS2 coat protein [3] |
| --- | --- | --- | --- | --- | --- |
| AAAAUCCUACCUGAGGAUCACCCUGGUGAAGGAGCGCCCGAAAGGGCAGGUAGGUCGCACCUGAGGAUCACCCUGGUACCUAAAA [ArgAX 29 #DoubleMs2 #OpenEnded #AlternativeMS2] | 82.6 nM | 70.6 nM | 57.4 nM | 48.3 nM | 61.8 nM |
| AAAAUCCUAUCUGAGGAUCACCCAGGUGAAGGAGCGCCCGAAAGGGCAGGUAGGUCGCACCUGAGGAUCACCCUGGUAAACCUAA [ArgEX 21 #DoubleMS2 #OpenEnded] | 68.8 nM | 76.7 nM | 76.3 nM | 90.6 nM | 65.4 nM |
| AAAAUCCUCCAUGAGGAUCACCCAUGGGAAGGAGCGCCCGAAAGGGCAGGUAGGUCGCCCAUGAGGAUCACCCAUGGAACCUAAA [ArgAX 26 #DoubleMS2 #OpenEnded #AlternativeMS2] | 43.7 nM | 56.5 nM | 112 nM | 118 nM | 43.5 nM |
| AAACAACAUGAGGAUCACCCAUGUACCGAUACCAGCCAAAUAUAAGGCCCUUGGCAGCGGAGUAAAUCCGGAGGACAAUGGGUAA [Same State Theophylline A GF5] | 8.62 nM | 39 nM | 39.2 nM | 76.9 nM | 28.3 nM |
| AAACAUGAGGAUCACCCAUGUAUGUUAUUACGAGGACCGGUACGGCCGCCACUCGAUAGAGUAGAAGUAAAUUGUAAUUCAUGUU [JR_ExcTryptoA_Sub017] | 19.3 nM |  | 18.8 nM | 16.9 nM |  |
| AAACAUGAGGAUCACCCAUGUGGAACCGAAGGAGCGGCGCACAUGCCAGGUAGGUCGCGGGACAUGAGGACAUGAGGAUCACCCA [Same State Arginine A 3] | 45.1 nM | 135 nM | 207 nM | 184 nM | 134 nM |
| AAACGCCACGGAAGGAGCGACAUGAGGAUCACCCAUGUAGUUUUGGCGGAUGCACCCUCCUGUCAGGUAGGUCGCCGUGCGAUAA [XArg-B26] | 32.6 nM | 35.8 nM | 71.8 nM | 68.5 nM | 33.4 nM |
| AAACGUUGCUGCGAUACCAGACAUGAGGAUCACCCAUGUACCAAGGUAAGAAAAUAACAUGUCCCUUGGCAGCGCAGCAACGAAA [MAT - Exclusion Theophlline B - Mod of Eli - D3] | 17.5 nM |  | 43.6 nM |  | 15.6 nM |
| AAAGAUCGGAAACGAUCGGCGGCUUGGGCGCGAGGACCGGUACGGCCGCCACUCGGGAAACAUGAGGAUCACCCAUGUUGCUAGC [ETA NP+V+V2 #15] | 12.3 nM |  | 18.4 nM | 16.8 nM |  |
| AAAUAAAUCACAUGAGGAUCACCCAUGGAUACCAGGCCUGGAAACAGCCCUUGGCAGCCACAUGAGGAUCACCCAUGUGCUAAUA [MAT - Exclusion Theophlline A - Mod of Eli - D1] | 89.8 nM |  | 194 nM |  | 152 nM |
| AACACAUGAGGAUCACCCAUGUCCAUGUACCGAGGACCGGUACGGCCGCCACUCGACAUGAGGAUCACCCAUGUUCCAUGUUGUC [Same State Tryptophan A 3] | 76 nM |  | 131 nM | 146 nM |  |
| AACAUGAGGACGGAUACCAGUCACAUGAGGAUCACCCAUGUACAUGAGGAUCACCCAUGUGGCCCUUGGCAGCCGCAUGUGAUCA [Exclusion Theophylline B 4] | 124 nM |  | 308 nM |  | 412 nM |
| AACAUGAGGAUCACCCAUGUGUCCUCGAAACGAGGACCGGUACGGCCGCCACUCGAAUAAGGUGUUGACGAAAAGUCAGCACCAA [Mat - Exclusion - Trytophan A - D17] | 111 nM |  | 314 nM | 338 nM |  |
| AACAUGAGGAUCACCCAUGUUUUAUGGGAUACCAGAGACGAAAGUCUCCCUUGGCAGCCCAAGCUGCUCCAUACGAAAGUAUGGU [Theophylline A 17] | 16 nM |  | 18.2 nM |  | 16.6 nM |
| AACAUGUGGAUCACCCAUGUAUGUUCUGAAGGAGCGCCACAUGAGGCAGGUAGGUCGCAGGUACAUGAGGAUCACCCAUGUGUCA [Exclusion Arginine A 4] | 54.5 nM | 192 nM | 111 nM | 193 nM | 158 nM |
| AACCGAGGCUAUCCUCUAAGAAAAUGUGAUACCAGAAUAAUUUUAUUCCCUUGGCAGCAUGACAUGAGGAUCACCCAUGUGUCUU [SSTheo A #6] | 73.6 nM |  | 131 nM |  | 138 nM |
| AACCGAGGCUAUCCUCUAAGACUAUGUGAUACCAGAAUAAUUUUAUUCCCUUGGCAGCAUGACAUGAGGAUCACCCAUGUCUCUU [SSTheo A #8] | 21 nM |  | 27.4 nM |  | 26 nM |
| AAGACAUGAGGAUCACCCAUGUGGAGGGAUACCAGCCUGUGUGUGGGCCCUUGGCAGCUUAAAUUUAAUUUAAUUAAAUAAAUUU [Same State - Theophylline A] | 27.6 nM |  | 41.6 nM |  | 34.9 nM |
| AAGACGGUCGGAAGGAGCGGUACAUGAGGAUCACCCAUGUACUCCUGGGCAUCCGUAGUGUGCCAGGUAGGUCGCCGAUUGCGGG [XArg-B14] | 12.8 nM | 12.8 nM | 22.9 nM | 16.6 nM | 15.3 nM |
| AAGCCCAGGACGGCCGCCACUGUAAAAUGGUGGUUCGCCUGUAAGAACAUGAGGAUCACCCAUGUCAGGACCGGGUCCACGAGUU [theeternabot_exclusion_MS2_Trp_B_46] | 17.1 nM |  | 23.8 nM | 15.8 nM |  |

Source: the supplement of paper PMC9170038
